Measured values taken from IntAct's records for PubMed 23288039.

B1: Serine/threonine-protein kinase Nek2 (Homo sapiens), P51955 (parent)
chain: MPSRAEDYEVLYTIGTGSYGRCQKIRRKSDGKILVWKELDYGSMTEAEKQMLVSEVNLLRELKHPNIVRYYDRIIDRTNTTLYIVMEYCEGGDLASVITKGTKERQYLDEEFVLRVMTQLTLALKECHRRSDGGHTVLHRDLKPANVFLDGKQNVKLGDFGLARILNHDTSFAKTFVGTPYYMSPEQMNRMSYNEKSDIWSLGCLLYELCALMPPFTAFSQKELAGKIREGKFRRIPYRYSDELNEIITRMLNLKDYHRPSVEEILENPLIADLVADEQRRNLERRGRQLGEPEKSQDSSPVLSELKLKEIQLQERERALKAREERLEQKEQELCVRERLAEDKLARAENLLKNYSLLKERKFLSLASNPELLNLPSSVIKKKVHFSGESKENIMRSENSESQLTSKSKCKDLKKRLHAAQLRAQALSDIEKNYQLKSRQILGMR

Variants of: B1
Settings: with apc4_human ANAPC4, Q9UJX5
apc4_human ANAPC4, Q9UJX5, sequence (Q9UJX5 whole entry): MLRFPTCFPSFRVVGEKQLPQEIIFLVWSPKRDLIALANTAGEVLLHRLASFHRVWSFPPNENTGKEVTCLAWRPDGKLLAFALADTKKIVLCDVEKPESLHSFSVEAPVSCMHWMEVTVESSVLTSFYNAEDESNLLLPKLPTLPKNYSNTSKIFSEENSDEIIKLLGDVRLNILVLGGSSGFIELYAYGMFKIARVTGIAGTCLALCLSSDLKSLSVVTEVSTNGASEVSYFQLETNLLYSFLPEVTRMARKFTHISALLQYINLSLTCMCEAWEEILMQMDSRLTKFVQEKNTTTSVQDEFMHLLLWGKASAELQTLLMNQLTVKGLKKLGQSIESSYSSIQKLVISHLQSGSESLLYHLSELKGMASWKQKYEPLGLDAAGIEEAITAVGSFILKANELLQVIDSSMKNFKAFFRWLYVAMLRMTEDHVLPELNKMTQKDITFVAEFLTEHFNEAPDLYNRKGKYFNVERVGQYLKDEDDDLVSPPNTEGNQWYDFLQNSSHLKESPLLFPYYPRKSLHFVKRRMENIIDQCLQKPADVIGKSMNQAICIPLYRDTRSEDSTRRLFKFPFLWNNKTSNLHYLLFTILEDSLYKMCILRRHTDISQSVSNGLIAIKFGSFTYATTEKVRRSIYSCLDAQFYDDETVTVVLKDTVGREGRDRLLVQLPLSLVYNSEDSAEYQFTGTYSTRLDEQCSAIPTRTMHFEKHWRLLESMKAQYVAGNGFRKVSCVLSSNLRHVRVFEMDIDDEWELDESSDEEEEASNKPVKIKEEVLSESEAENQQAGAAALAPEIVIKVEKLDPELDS

Row | Variant | effect of a mutation on the interaction
1 | MPSRAEDYEVLYTIGTGSYGRCQKIRRKSDGKILVWKELDYGSMTEAEKQMLVSEVNLLRELKHPNIVRYYDRIIDRTNTTLYIVMEYCEGGDLASVITKGTKERQYLDEEFVLRVMTQLTLALKECHRRSDGGHTVLHRDLKPANVFLDGKQNVKLGDFGLARILNHDTSFAKTFVGTPYYMSPEQMNRMSYNEKSDIWSLGCLLYELCALMPPFTAFSQKELAGKIREGKFRRIPYRYSDELNEIITRMLNLKDYHRPSVEEILENPLIADLVADEQRRNLERRGRQLGEPEKSQDSSPVLSELKLKEIQAQERERALKAREERLEQKEQELCVRERLAEDKLARAENLLKNYSLLKERKFLSLASNPELLNLPSSVIKKKVHFSGESKENIMRSENSESQLTSKSKCKDLKKRLHAAQLRAQALSDIEKNYQLKSRQILGMR [L313A] | decreasing interaction
2 | MPSRAEDYEVLYTIGTGSYGRCQKIRRKSDGKILVWKELDYGSMTEAEKQMLVSEVNLLRELKHPNIVRYYDRIIDRTNTTLYIVMEYCEGGDLASVITKGTKERQYLDEEFVLRVMTQLTLALKECHRRSDGGHTVLHRDLKPANVFLDGKQNVKLGDFGLARILNHDTSFAKTFVGTPYYMSPEQMNRMSYNEKSDIWSLGCLLYELCALMPPFTAFSQKELAGKIREGKFRRIPYRYSDELNEIITRMLNLKDYHRPSVEEILENPLIADLVADEQRRNLERRGRQLGEPEKSQDSSPVLSELKLKEIQLQERERAAKAREERLEQKEQELCVRERLAEDKLARAENLLKNYSLLKERKFLSLASNPELLNLPSSVIKKKVHFSGESKENIMRSENSESQLTSKSKCKDLKKRLHAAQLRAQALSDIEKNYQLKSRQILGMR [L320A] | decreasing interaction
